{"source": "paper PMC6684406", "about": "(Nature structural & molecular biology, 2019)", "binders": {"B1": {"name": "Pmt2 (protein O-mannosyltransferase 2) (enzyme, S. cerevisiae, UniProt P31382 1-759, looked up)", "chain": "MSSSSSTGYSKNNAAHIKQENTLRQRESSSISVSEELSSADERDAEDFSKEKPAAQSSLLRLESVVMPVIFTALALFTRMYKIGINNHVVWDEAHFGKFGSYYLRHEFYHDVHPPLGKMLVGLSGYLAGYNGSWDFPSGEIYPDYLDYVKMRLFNASFSALCVPLAYFTAKAIGFSLPTVWLMTVLVLFENSYSTLGRFILLDSMLLFFTVASFFSFVMFHNQRSKPFSRKWWKWLLITGISLGCTISVKMVGLFIITMVGIYTVIDLWTFLADKSMSWKTYINHWLARIFGLIIVPFCIFLLCFKIHFDLLSHSGTGDANMPSLFQARLVGSDVGQGPRDIALGSSVVSIKNQALGGSLLHSHIQTYPDGSNQQQVTCYGYKDANNEWFFNRERGLPSWSENETDIEYLKPGTSYRLVHKSTGRNLHTHPVAAPVSKTQWEVSGYGDNVVGDNKDNWVIEIMDQRGDEDPEKLHTLTTSFRIKNLEMGCYLAQTGNSLPEWGFRQQEVVCMKNPFKRDKRTWWNIETHENERLPPRPEDFQYPKTNFLKDFIHLNLAMMATNNALVPDPDKFDYLASSAWQWPTLNVGLRLCGWGDDNPKYFLLGTPASTWASSVAVLAFMATVVILLIRWQRQYVDLRNPSNWNVFLMGGFYPLLAWGLHYMPFVIMSRVTYVHHYLPALYFALIILAYCFDAGLQKWSRSKCGRIMRFVLYAGFMALVIGCFWYFSPISFGMEGPSSNFRYLNWFSTWDIADKQEA", "modifications": "N-glycan on N131"}}, "molecular_target": "T1, Pmt1 (protein O-mannosyltransferase 1), C-terminal 3×FLAG-tagged (S. cerevisiae, UniProt P33775 1-817, N-glycan on N390)", "T1 sequence (looked up)": "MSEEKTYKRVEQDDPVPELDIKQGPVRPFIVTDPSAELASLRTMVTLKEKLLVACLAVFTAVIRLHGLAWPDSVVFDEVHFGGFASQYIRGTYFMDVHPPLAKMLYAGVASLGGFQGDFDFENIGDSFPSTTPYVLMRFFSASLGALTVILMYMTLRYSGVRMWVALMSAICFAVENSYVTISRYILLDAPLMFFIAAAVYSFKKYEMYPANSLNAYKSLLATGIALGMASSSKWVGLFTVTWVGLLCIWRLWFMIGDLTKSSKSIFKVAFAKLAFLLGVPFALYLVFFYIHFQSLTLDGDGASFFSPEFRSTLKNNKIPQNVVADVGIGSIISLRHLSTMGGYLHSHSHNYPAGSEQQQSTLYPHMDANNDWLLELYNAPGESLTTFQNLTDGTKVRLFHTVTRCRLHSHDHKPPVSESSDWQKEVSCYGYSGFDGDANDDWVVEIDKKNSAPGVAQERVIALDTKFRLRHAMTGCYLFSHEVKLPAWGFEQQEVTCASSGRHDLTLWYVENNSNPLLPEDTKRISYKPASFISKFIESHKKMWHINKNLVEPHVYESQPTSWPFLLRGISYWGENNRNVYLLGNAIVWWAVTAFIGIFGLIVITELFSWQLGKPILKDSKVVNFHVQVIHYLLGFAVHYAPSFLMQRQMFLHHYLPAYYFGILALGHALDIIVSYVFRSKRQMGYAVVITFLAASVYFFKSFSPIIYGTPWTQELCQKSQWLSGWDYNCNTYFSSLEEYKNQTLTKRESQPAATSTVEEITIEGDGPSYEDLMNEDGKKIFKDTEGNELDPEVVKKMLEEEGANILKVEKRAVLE", "assay": "cryo-EM structure"}
{"binder": "B1", "values": [{"measurement": "stoichiometry N", "result": 1}]}
